According to paper doi:10.1101/2022.04.12.488087 (bioRxiv, 2022):

Biological target: SARS-CoV-1 wild type RBD (SARS-CoV-1 (P59594 / NP_828851.1, …))
Test: crystal structure

B1: nanobody Nb70 (VHH with 6xHis tag, for crystal structural analysis) (VHH)
VHH: QVQLVESGGGLVQAGGSLRLSCVASGRTFSRYAMGWFRQAPGKEREFVAVIEWDGGTSYYVDSVKGRFTISRDNAKNTVYLQMNSLKPEDTAVYYCAAGGNQYYSATYSIWNEYDFWGQGTQVTVSS
binding result: binds
